The source of these data is PMC4920709.

This assay has as its target Proprotein Convertase Subtilisin/Kexin type 9 (PCSK9), human plasma (human (endogenous in plasma)) (UniProt Q8NBP7).
Chain of UniProt Q8NBP7 (Q8NBP7 153-692): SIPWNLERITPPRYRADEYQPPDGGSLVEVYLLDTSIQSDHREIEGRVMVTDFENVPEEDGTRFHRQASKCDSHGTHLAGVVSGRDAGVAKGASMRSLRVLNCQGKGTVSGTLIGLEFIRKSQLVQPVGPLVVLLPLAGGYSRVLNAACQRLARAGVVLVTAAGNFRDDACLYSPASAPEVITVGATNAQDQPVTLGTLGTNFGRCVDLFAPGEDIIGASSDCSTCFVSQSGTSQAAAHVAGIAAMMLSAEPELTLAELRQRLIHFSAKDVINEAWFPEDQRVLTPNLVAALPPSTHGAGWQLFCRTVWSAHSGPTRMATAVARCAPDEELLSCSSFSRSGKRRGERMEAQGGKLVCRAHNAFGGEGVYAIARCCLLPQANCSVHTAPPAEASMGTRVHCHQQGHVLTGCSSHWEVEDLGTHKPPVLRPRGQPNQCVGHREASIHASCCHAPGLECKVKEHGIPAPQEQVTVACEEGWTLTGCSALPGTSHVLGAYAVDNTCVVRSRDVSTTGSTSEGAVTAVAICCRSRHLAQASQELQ

“apolipoprotein B-100 (apoB-100) of human plasma LDL and Lp(a) (from UniProt P04114 28-4563) (natural protein)”: the percent of plasma PCSK9 associated with apoB is 37%.
